One may read the Kd as the free concentration of one partner at which half of the binding sites on the other are occupied at equilibrium, for simple one-to-one binding. High values mean lower affinity, low ones higher affinity.

Drawing on patent US20180050058, this text covers Kd and binding signal for 13 sequences.

Holding throughout (assay): pulldown
Data set [1] has as its system Hemagglutinin H5N1 A/Cambodia/R0405050/2007 (C-8) (Influenza A virus H5N1 (A/Cambodia/R0405050/2007)).
Data set [2] concerns Hemagglutinins of 14 non-H5 subtypes (H1-H4, H6-H13, H15, H16; Table 1 strains) (Influenza A virus).
Data set [3] deals with Hemagglutinin H5N1 A/goose/Guiyang/337/2006 (G-8) (Influenza A virus H5N1 (A/goose/Guiyang/337/2006)).
For data set [4], the system named is Hemagglutinin H5N1 A/Vietnam/1994/2004 (V-16) (Influenza A virus H5N1 (A/Vietnam/1994/2004)).
For data set [5], the system named is Hemagglutinin H5N1 A/Japanese white-eye/Hong Kong/1038/2006 (JW-1) (Influenza A virus H5N1 (A/Japanese white-eye/Hong Kong/1038/2006)).
Data set [6] has as its system Hemagglutinin H5N1 A/Egypt/2321-NAMRU3/2007 (EG-2) (Influenza A virus H5N1 (A/Egypt/2321-NAMRU3/2007)).
Data set [7] relates to Hemagglutinin H5N1 A/Hubei/2010 (HB-16) (Influenza A virus H5N1 (A/Hubei/2010)).
The subject of data set [8] is Hemagglutinin H5N1 A/Indonesia/5/2005 (IN-3) (Influenza A virus H5N1 (A/Indonesia/5/2005)).
Data set [9] relates to Hemagglutinin H5N1 A/Hong Kong/483/97 (H-12) (Influenza A virus H5N1 (A/Hong King/483/97)).
Data set [10] has as its system Hemagglutinin H5N2 A/American green-winged teal/California/HKWF609/2007 (A-17) (Influenza A virus H5N2 (A/American green-winged teal/California/HKWF609/2007)).
Data set [11] has as its system Hemagglutinin H5N3 A/duck/Hokkaido/167/2007 (HK-12) (Influenza A virus H5N3 (A/duck/Hokkaido/167/2007)).
Data set [12] has as its system Hemagglutinin H5N1 A/bar-headed goose/Qinghai/14/2008 (Hg-2) (Influenza A virus H5N1 (A/bar-headed goose/Qinghai/14/2008)).
The test system of data set [13] is Hemagglutinin H5N8 A/duck/NY191255-59/2002 (D-14) (Influenza A virus H5N8 (A/duck/NY191255-59/2002)).
Data set [14] deals with Hemagglutinin H5N1 A/duck/Hunan/795/2002 (HN-8) (Influenza A virus H5N1 (A/duck/Hunan/795/2002)).

Take TCACGCTTTTGGTGCATGCAGAGTTTTGTG [A4]: the Kd in [1] was determined as 43.6 nM. This sequence showed a binding signal in data set [2] of less than 20%.

With TGTCGGGGGAACAATCTGTGTTCGCTTGTC [A10], in [3], the Kd was determined as 5.74 nM. In data set [2], this sequence registered a binding signal of less than 20%.

In data set [2], TGGCAGTGGGTTGAGGGGAAGTCTTATTCG [A3] came in with a binding signal of less than 20%. This sequence gave a Kd in data set [4] of 7.57 nM.

In data set [5], TGGATTGCACGCAGGGGCCGCTTGGCTGTC [A9] had a Kd of 7.84 nM. This sequence also displayed a binding signal in data set [2] of less than 20%.

Consider TGGGTTTGGAAATTGGGACACAGTGGGGCG [A7], for which the Kd in data set [6] was found to be 1.96 nM. Also, the binding signal in data set [2] was less than 20%.

ATTGCAAGGAGAGGCTACGGCTATGACAGA [A8] returned a binding signal in data set [2] of less than 20%. Further, the Kd in data set [7] amounted to 9.4 nM.

In data set [8], TGGATTCACGCGGTCTCCGCCCTTGGGTGG [A6] registered a Kd of 14 nM. The same sequence yielded a binding signal in data set [2] of less than 20%.

Regarding AGTGGGTTCTTGGTGCATCCCAGGAGTACC [A1], the binding signal in data set [2] was less than 20%. Besides, the Kd in data set [9] turned out to be 25.9 nM.

Turning to GCGAGGTTGAGCGTGGGCTACTTGGTTCAT [A11], the Kd in [10] worked out at 3.5 nM. Further, the binding signal in data set [2] was less than 20%.

In turn, TGCACGCAGGGGCCGCTTGGGTGGAGAGGC [A12] gave a binding signal in data set [2] of less than 20%. The Kd in data set [11] worked out at 3.5 nM.

As for GGGGTCAACTTTTCCTTTGTCGGTTTT [A2], the Kd in data set [12] amounted to 13.4 nM. This sequence yielded a binding signal in data set [2] of less than 20%.

As for TACTTATGTGGGCCGGTGCGTTTGCATTTT [A13], the Kd in [13] is 0.7 nM. Also, the binding signal in data set [2] is less than 20%.

For CTTCTTCCACCCATGCCGGCTGGAGAATCC [A5], in data set [14], the Kd worked out at 12.4 nM. Besides, the binding signal in data set [2] is less than 20%.
